{
  "source": "patent US7553821B2",
  "about": "“Methods for selectively modulating survivin apoptosis pathways” (Yale University, priority 2000, dated 2009)",
  "molecules": {"B1": {"name": "caspase-9(C287A): caspase 9 dominant negative mutant (Cys287→Ala) (protein, UniProt P55211 1-416, looked up, variant C287A)", "chain": "MDEADRRLLRRCRLRLVEELQVDQLWDALLSRELFRPHMIEDIQRAGSGSRRDQARQLIIDLETRGSQALPLFISCLEDTGQDMLASFLRTNRQAAKLSKPTLENLTPVVLRPEIRKPEVLRPETPRPVDIGSGGFGDVGALESLRGNADLAYILSMEPCGHCLIINNVNFCRESGLRTRTGSNIDCEKLRRRFSSLHFMVEVKGDLTAKKMVLALLELAQQDHGALDCCVVVILSHGCQASHLQFPGAVYGTDGCPVSVEKIVNIFNGTSCPSLGGKPKLFFIQAAGGEQKDHGFEVASTSPEDESPGSNPEPDATPFQEGLRTFDQLDAISSLPTPSDIFVSYSTFPGFVSWRDPKSGSWYVETLDDIFEQWAHSEDLQSLLLRVANAVSVKGIYKQMPGCFNFLRKKLFFKTS"}, "B2": {"name": "caspase-8(C360S): caspase-8 dominant negative mutant obtained from Dr. V. Dixit (protein, UniProt Q14790 1-479, looked up, variant C360S)", "chain": "MDFSRNLYDIGEQLDSEDLASLKFLSLDYIPQRKQEPIKDALMLFQRLQEKRMLEESNLSFLKELLFRINRLDLLITYLNTRKEEMERELQTPGRAQISAYRVMLYQISEEVSRSELRSFKFLLQEEISKCKLDDDMNLLDIFIEMEKRVILGEGKLDILKRVCAQINKSLLKIINDYEEFSKERSSSLEGSPDEFSNGEELCGVMTISDSPREQDSESQTLDKVYQMKSKPRGYCLIINNHNFAKAREKVPKLHSIRDRNGTHLDAGALTTTFEELHFEIKPHDDCTVEQIYEILKIYQLMDHSNMDCFICCILSHGDKGIIYGTDGQEAPIYELTSQFTGLKCPSLAGKPKVFFIQASQGDNYQKGIPVETDSEEQPYLEMDLSSPQTRYIPDEADFLLGMATVNNCVSYRNPAEGTWYIQSLCQSLRERCPRGDDILTILTEVNYEVSNKDDKKNMGKQMPQPTFTLRKKLVFPSD"}},
  "key": {"HeLa cells [1]": {"system": "HeLa cells", "assay": "Nuclear morphology of apoptosis (DAPI) in transfected HeLa cells", "type": "cell-based", "settings": "for HeLa cell apoptosis induced by survivin(T34A), effect of co-transfected dominant negative caspase: co-transfection", "excerpt": "HeLa cells transfected with GFP-vector (vector), GFP-survivin(T34A) (T34A), or GFP-caspase-9 (Met^1-Asp^330) (caspase-9), were scored morphologically for nuclear integrity by DAPI staining after 48-h. Arrows, nuclear fragmentation and chromatin condensation in GFP-expressing cells.\nThe experimental procedures are the same as in A. Data are the meaνSEM of four independent experiments.\nHeLa cells were transfected with the various indicated combinations of GFP-constructs, with or without etoposide (10 μg/ml) or TNFα (10 ng/ml) plus cycloheximide (10 μg/ml), harvested after 48 h, and GFP-labeled cells were morphologically scored for nuclear fragmentation by DAPI staining, as described in FIG. 2B. DN, dominant negative. Data are the mea±SEM of four independent experiments.\nTransfection experiments. For transient transfection, HeLa cells in C-6 tissue culture plates (Costar, Cambridge, Mass.) at ˜60-70% confluency, were incubated in 1 ml of serum-free OptiMEM medium (Life Technologies, Gaithersburg, Md.) for 20 min, and transfected with 2.5 μg of the various plasmid cDNAs plus 9 μl Lipofectamine (Life Technologies). After a 5 h incubation at 37° C., the mixture was aspirated and substituted with complete growth medium for 48-72 h. To generate stable YUSAC-2 transfectants, a survivin(T34A) cDNA was inserted into the HindIII-SpeI sites of the pTet-splice vector (Dr. D. Schatz, Yale University School of Medicine), downstream of the regulatory sequences of the Tet-resistance operon (TetO). YUSAC-2 cells were transfected with 0.8 μg pTet-T34A, 0.8 μg of the transactivation/selection plasmid ptTA-Neo and 5 μl Lipofectamine in 1 ml of OptiMem. Forty-eight h after transfection, cells were re-plated at low density in 15×150 mm plates in growth medium containing 1.5 mg/ml Geneticin (G418, Life Technologies), 2 mM sodium hydroxide and 0.5 μg/ml Tet (Sigma, St. Louis, Mo.) (selection medium). After a 3-week culture, ninety-six individual clones were screened for differential growth in the presence or absence of Tet. […] Flow cytometry. HeLa cells transfected with the various GFP constructs in the presence or in the absence of the broad-spectrum caspase inhibitor Z-VAD-fmk (20 μM) were harvested after 48-h (non-adherent and adherent cells), washed in PBS, pH 7.0, and fixed in cold 70% ethanol for 30 min on ice. After washes in PBS, cells (10×10^6/ml) were stained with 25 μg/ml propidium iodide (Sigma), 0.05% Triton X-100 and 100 μg/ml RNAse A (Boehringer Mannheim, Indianapolis, Ind.) for 45 min at 22° C. Gated GFP-expressing cells were analyzed for DNA content by flow cytometry on a FACSort (Becton Dickinson, San Jose, Calif.) using a Cell Quest software. In other experiments, F5-C4 cells were synchronized at the G1/S boundary by culture with 5-mM thymidine for 16 h at 37° C., in the presence or in the absence of Tet. At the end of the incubation, cells were released from the thymidine block, and harvested at 3-h intervals for DNA content analysis by propidium iodide staining and flow cytometry, or, alternatively, for caspase-9 processing by Western blotting (see below). TUNEL staining. Internucleosomal DNA fragmentation of F5.C4 cells in the presence or in the absence of Tet was carried out by end-labeling with terminal deoxynucleotidyl transferase (TdT) and peroxidase-conjugated anti-digoxigenin antibody using the ApopTag kit (Intergen, Purchase, N.Y.), as described previously (Grossman et al., 1999). Immunoprecipitation and Western blotting. Asynchronously growing or synchronized HeLa cells were lysed in 200 μl of lysis buffer containing 50 mM Tris, pH 7.5, 1% NP-40, 0.25% DOC, 150 mM NaCl, 1 mM PMSF, 10 μg/ml aprotinin, 10 μg/ml leupeptin, 10 μg/ml pepstatin, 1 mM Na3VO4, 20 mM NaF, 0.2 mM EGTA, 1 mM EDTA, pH 8.0, for 30 min at 4° C. Insoluble material was removed by centrifugation at 14,000 rpm for 15 min, and two-hundred μg of protein lysate was pre-absorbed with 25 μl of a 50:50 Protein A Sepharose slurry (Pharmacia) for 3 h at 4° C. with constant agitation. […]"}, "HeLa cells [2]": {"system": "HeLa cells", "assay": "DNA content by propidium iodide staining and flow cytometry in transfected HeLa cells", "type": "cell-based", "settings": "inhibitor 20 μM, 48 h", "experimental": "HeLa cells were transfected with GFP-survivin(T34A) in the presence or in the absence of 20 μM of the caspase inhibitor, Z-VAD-fmk. Gated GFP-expressing cells were analyzed 48 h after transfection for DNA content by propidium iodide staining and flow cytometry. The percentages of apoptotic cells with sub-G1 (hypodiploid) […] DNA content are indicated. Apoptotic HeLa cells in GFP-vector transfectants were 8%. Data are representative of one experiment out of at least three independent determinations.\nTransfection experiments. For transient transfection, HeLa cells in C-6 tissue culture plates (Costar, Cambridge, Mass.) at ˜60-70% confluency, were incubated in 1 ml of serum-free OptiMEM medium (Life Technologies, Gaithersburg, Md.) for 20 min, and transfected with 2.5 μg of the various plasmid cDNAs plus 9 μl Lipofectamine (Life Technologies). After a 5 h incubation at 37° C., the mixture was aspirated and substituted with complete growth medium for 48-72 h. To generate stable YUSAC-2 transfectants, a survivin(T34A) cDNA was inserted into the HindIII-SpeI sites of the pTet-splice vector (Dr. D. Schatz, Yale University School of Medicine), downstream of the regulatory sequences of the Tet-resistance operon (TetO). […] Gated GFP-expressing cells were analyzed for DNA content by flow cytometry on a FACSort (Becton Dickinson, San Jose, Calif.) using a Cell Quest software. […]"}},
  "note": "Residues, ends and D or L forms follow the SMILES beside them. *: point of attachment. Cbz = O=C(OCc1ccccc1)*; CH2F = FC*",
  "data": [
    {"molecule": "Leu^64ÕAla: another survivin point mutant in the Baculovirus IAP repeat (BIR), control [reference compound]", "values": [
      {"measurement": "ability to induce spontaneous apoptosis upon transient transfection", "setting": "HeLa cells [1]; survivin BIR domain mutants", "value": "did not cause apoptosis"}
    ]},
    {"molecule": "COC(=O)C[C@H](NC(=O)[C@H](C)NC(=O)[C@@H](NC(=O)OCc1ccccc1)C(C)C)C(=O)CF", "note": "[Z-VAD-fmk, reference compound] (Cbz-Val-Ala-Asp(OMe)-CH2F)", "values": [
      {"measurement": "effect on sub-G1 DNA content induced by GFP-survivin(T34A)", "setting": "HeLa cells [2]", "value": "reversed"}
    ]},
    {"molecule": "B1", "values": [
      {"measurement": "HeLa cell apoptosis induced by survivin(T34A), effect of co-transfected dominant negative caspase", "setting": "HeLa cells [1]; 48 h", "value": "reversed HeLa cell apoptosis induced by survivin(T34A) to background levels"},
      {"measurement": "nuclear fragmentation and chromatin condensation induced by etoposide", "setting": "HeLa cells [1]; etoposide 10 μg/ml, 48 h", "value": "inhibited"}
    ]},
    {"molecule": "B2", "values": [
      {"measurement": "cell death induced by TNFα/cycloheximide", "setting": "HeLa cells [1]; TNFα 10 ng/ml plus cycloheximide 10 μg/ml, 48 h", "value": "completely inhibited"},
      {"measurement": "HeLa cell apoptosis induced by survivin(T34A), effect of co-transfected dominant negative caspase", "setting": "HeLa cells [1]; 48 h", "value": "did not reduce apoptosis"}
    ]}
  ]
}
